Data taken from the RNAGym collection of RNA variant scans (doi:10.1021/acssynbio.7b00057).

B1: Pistol ribozyme (parent)
chain: GGGUCGUUGUUCCAUAAUCGCGUGGAUAUGGCACGCAAGUUUCUACCGGGCACCGUAAAUGUCCGACUGGAGCCGUUCGGGCGGCUAUAAACAGACCUCAGGCCCGAAGCGUGGCGGCACCUGCCGCCGGUGGUAAAAAAGAUCGGAAGAGCACACGUCU

Variants of: B1
Assay: aptazyme ON/OFF ratio, guanine; higher = stronger switching; co-transcriptional cleavage with and without guanine

Variant	aptazyme ON/OFF ratio
GGGUCGUGGCUCAAUAAUCGCGUGGAUAUGGCACGCAAGUUUCUACCGGGCACCGUAAAUGUCCGACUGGAGCCGUUCGGGCGGCUAUAAACAGACCUCAGGCCCGAAGCGUGGCGGCACCUGCCGCCGGUGGUAAAAAAGAUCGGAAGAGCACACGUCU [U8G U10C C13A]	1.05
GGGUCGUGGCUCGAUAAUCGCGUGGAUAUGGCACGCAAGUUUCUACCGGGCACCGUAAAUGUCCGACUGGAGCCGUUCGGGCGGCUAUAAACAGACCUCAGGCCCGAAGCGUGGCGGCACCUGCCGCCGGUGGUAAAAAAGAUCGGAAGAGCACACGUCU [U8G U10C C13G]	1.04
GGGUCGUGGCUCUAUAAUCGCGUGGAUAUGGCACGCAAGUUUCUACCGGGCACCGUAAAUGUCCGACUGGAGCCGUUCGGGCGGCUAUAAACAGACCUCAGGCCCGAAGCGUGGCGGCACCUGCCGCCGGUGGUAAAAAAGAUCGGAAGAGCACACGUCU [U8G U10C C13U]	1.15
GGGUCGUGGAGUCAUAAUCGCGUGGAUAUGGCACGCAAGUUUCUACCGGGCACCGUAAAUGUCCGACUGGAGCCGUUCGGGCGGCUAUAAACAGACCUCAGGCCCGAAGCGUGGCGGCACCUGCCGCCGGUGGUAAAAAAGAUCGGAAGAGCACACGUCU [U8G U10A U11G C12U]	1.23
GGGUCGUGGAGUAAUAAUCGCGUGGAUAUGGCACGCAAGUUUCUACCGGGCACCGUAAAUGUCCGACUGGAGCCGUUCGGGCGGCUAUAAACAGACCUCAGGCCCGAAGCGUGGCGGCACCUGCCGCCGGUGGUAAAAAAGAUCGGAAGAGCACACGUCU [U8G U10A U11G C12U C13A]	1.15
GGGUCGUGGAGUUAUAAUCGCGUGGAUAUGGCACGCAAGUUUCUACCGGGCACCGUAAAUGUCCGACUGGAGCCGUUCGGGCGGCUAUAAACAGACCUCAGGCCCGAAGCGUGGCGGCACCUGCCGCCGGUGGUAAAAAAGAUCGGAAGAGCACACGUCU [U8G U10A U11G C12U C13U]	1.12
GGGUCGUGGAGUGAUAAUCGCGUGGAUAUGGCACGCAAGUUUCUACCGGGCACCGUAAAUGUCCGACUGGAGCCGUUCGGGCGGCUAUAAACAGACCUCAGGCCCGAAGCGUGGCGGCACCUGCCGCCGGUGGUAAAAAAGAUCGGAAGAGCACACGUCU [U8G U10A U11G C12U C13G]	1.22
GGGUCGUGGAGCAAUAAUCGCGUGGAUAUGGCACGCAAGUUUCUACCGGGCACCGUAAAUGUCCGACUGGAGCCGUUCGGGCGGCUAUAAACAGACCUCAGGCCCGAAGCGUGGCGGCACCUGCCGCCGGUGGUAAAAAAGAUCGGAAGAGCACACGUCU [U8G U10A U11G C13A]	1.08
GGGUCGUGGAGCUAUAAUCGCGUGGAUAUGGCACGCAAGUUUCUACCGGGCACCGUAAAUGUCCGACUGGAGCCGUUCGGGCGGCUAUAAACAGACCUCAGGCCCGAAGCGUGGCGGCACCUGCCGCCGGUGGUAAAAAAGAUCGGAAGAGCACACGUCU [U8G U10A U11G C13U]	1.04
GGGUCGUGGAGCGAUAAUCGCGUGGAUAUGGCACGCAAGUUUCUACCGGGCACCGUAAAUGUCCGACUGGAGCCGUUCGGGCGGCUAUAAACAGACCUCAGGCCCGAAGCGUGGCGGCACCUGCCGCCGGUGGUAAAAAAGAUCGGAAGAGCACACGUCU [U8G U10A U11G C13G]	1.04
GGGUCGUGGCUCCAUAAUCGCGUGGAUAUGGCACGCAAGUUUCUACCGGGCACCGUAAAUGUCCGACUGGAGCCGUUCGGGCGGCUAUAAACAGACCUCAGGCCCGAAGCGUGGCGGCACCUGCCGCCGGUGGUAAAAAAGAUCGGAAGAGCACACGUCU [U8G U10C]	3.87
GGGUCGUGGCUAAAUAAUCGCGUGGAUAUGGCACGCAAGUUUCUACCGGGCACCGUAAAUGUCCGACUGGAGCCGUUCGGGCGGCUAUAAACAGACCUCAGGCCCGAAGCGUGGCGGCACCUGCCGCCGGUGGUAAAAAAGAUCGGAAGAGCACACGUCU [U8G U10C C12A C13A]	1.09
GGGUCGUGGCUAUAUAAUCGCGUGGAUAUGGCACGCAAGUUUCUACCGGGCACCGUAAAUGUCCGACUGGAGCCGUUCGGGCGGCUAUAAACAGACCUCAGGCCCGAAGCGUGGCGGCACCUGCCGCCGGUGGUAAAAAAGAUCGGAAGAGCACACGUCU [U8G U10C C12A C13U]	1.14
GGGUCGUGGCUAGAUAAUCGCGUGGAUAUGGCACGCAAGUUUCUACCGGGCACCGUAAAUGUCCGACUGGAGCCGUUCGGGCGGCUAUAAACAGACCUCAGGCCCGAAGCGUGGCGGCACCUGCCGCCGGUGGUAAAAAAGAUCGGAAGAGCACACGUCU [U8G U10C C12A C13G]	1.07
GGGUCGUGGAGGGAUAAUCGCGUGGAUAUGGCACGCAAGUUUCUACCGGGCACCGUAAAUGUCCGACUGGAGCCGUUCGGGCGGCUAUAAACAGACCUCAGGCCCGAAGCGUGGCGGCACCUGCCGCCGGUGGUAAAAAAGAUCGGAAGAGCACACGUCU [U8G U10A U11G C12G C13G]	1.14
GGGUCGUGGAGGUAUAAUCGCGUGGAUAUGGCACGCAAGUUUCUACCGGGCACCGUAAAUGUCCGACUGGAGCCGUUCGGGCGGCUAUAAACAGACCUCAGGCCCGAAGCGUGGCGGCACCUGCCGCCGGUGGUAAAAAAGAUCGGAAGAGCACACGUCU [U8G U10A U11G C12G C13U]	1.5
GGGUCGUGGCAUCAUAAUCGCGUGGAUAUGGCACGCAAGUUUCUACCGGGCACCGUAAAUGUCCGACUGGAGCCGUUCGGGCGGCUAUAAACAGACCUCAGGCCCGAAGCGUGGCGGCACCUGCCGCCGGUGGUAAAAAAGAUCGGAAGAGCACACGUCU [U8G U10C U11A C12U]	1.28
GGGUCGUGGCAACAUAAUCGCGUGGAUAUGGCACGCAAGUUUCUACCGGGCACCGUAAAUGUCCGACUGGAGCCGUUCGGGCGGCUAUAAACAGACCUCAGGCCCGAAGCGUGGCGGCACCUGCCGCCGGUGGUAAAAAAGAUCGGAAGAGCACACGUCU [U8G U10C U11A C12A]	1.39

Variant	aptazyme ON/OFF ratio
GGGUCGUGGCAGCAUAAUCGCGUGGAUAUGGCACGCAAGUUUCUACCGGGCACCGUAAAUGUCCGACUGGAGCCGUUCGGGCGGCUAUAAACAGACCUCAGGCCCGAAGCGUGGCGGCACCUGCCGCCGGUGGUAAAAAAGAUCGGAAGAGCACACGUCU [U8G U10C U11A C12G]	1.26
GGGUCGUGGCAUAAUAAUCGCGUGGAUAUGGCACGCAAGUUUCUACCGGGCACCGUAAAUGUCCGACUGGAGCCGUUCGGGCGGCUAUAAACAGACCUCAGGCCCGAAGCGUGGCGGCACCUGCCGCCGGUGGUAAAAAAGAUCGGAAGAGCACACGUCU [U8G U10C U11A C12U C13A]	1.14
GGGUCGUGGCUUAAUAAUCGCGUGGAUAUGGCACGCAAGUUUCUACCGGGCACCGUAAAUGUCCGACUGGAGCCGUUCGGGCGGCUAUAAACAGACCUCAGGCCCGAAGCGUGGCGGCACCUGCCGCCGGUGGUAAAAAAGAUCGGAAGAGCACACGUCU [U8G U10C C12U C13A]	1.05
GGGUCGUGGCUUUAUAAUCGCGUGGAUAUGGCACGCAAGUUUCUACCGGGCACCGUAAAUGUCCGACUGGAGCCGUUCGGGCGGCUAUAAACAGACCUCAGGCCCGAAGCGUGGCGGCACCUGCCGCCGGUGGUAAAAAAGAUCGGAAGAGCACACGUCU [U8G U10C C12U C13U]	1.17
GGGUCGUGGCUUGAUAAUCGCGUGGAUAUGGCACGCAAGUUUCUACCGGGCACCGUAAAUGUCCGACUGGAGCCGUUCGGGCGGCUAUAAACAGACCUCAGGCCCGAAGCGUGGCGGCACCUGCCGCCGGUGGUAAAAAAGAUCGGAAGAGCACACGUCU [U8G U10C C12U C13G]	1.07
GGGUCGUGGCAGUAUAAUCGCGUGGAUAUGGCACGCAAGUUUCUACCGGGCACCGUAAAUGUCCGACUGGAGCCGUUCGGGCGGCUAUAAACAGACCUCAGGCCCGAAGCGUGGCGGCACCUGCCGCCGGUGGUAAAAAAGAUCGGAAGAGCACACGUCU [U8G U10C U11A C12G C13U]	1.27
GGGUCGUGGCAGAAUAAUCGCGUGGAUAUGGCACGCAAGUUUCUACCGGGCACCGUAAAUGUCCGACUGGAGCCGUUCGGGCGGCUAUAAACAGACCUCAGGCCCGAAGCGUGGCGGCACCUGCCGCCGGUGGUAAAAAAGAUCGGAAGAGCACACGUCU [U8G U10C U11A C12G C13A]	1.07
GGGUCGUGGCAGGAUAAUCGCGUGGAUAUGGCACGCAAGUUUCUACCGGGCACCGUAAAUGUCCGACUGGAGCCGUUCGGGCGGCUAUAAACAGACCUCAGGCCCGAAGCGUGGCGGCACCUGCCGCCGGUGGUAAAAAAGAUCGGAAGAGCACACGUCU [U8G U10C U11A C12G C13G]	1.09
GGGUCGUGGCUGGAUAAUCGCGUGGAUAUGGCACGCAAGUUUCUACCGGGCACCGUAAAUGUCCGACUGGAGCCGUUCGGGCGGCUAUAAACAGACCUCAGGCCCGAAGCGUGGCGGCACCUGCCGCCGGUGGUAAAAAAGAUCGGAAGAGCACACGUCU [U8G U10C C12G C13G]	1.14
GGGUCGUGGCUGUAUAAUCGCGUGGAUAUGGCACGCAAGUUUCUACCGGGCACCGUAAAUGUCCGACUGGAGCCGUUCGGGCGGCUAUAAACAGACCUCAGGCCCGAAGCGUGGCGGCACCUGCCGCCGGUGGUAAAAAAGAUCGGAAGAGCACACGUCU [U8G U10C C12G C13U]	1.27
GGGUCGUGGCUGAAUAAUCGCGUGGAUAUGGCACGCAAGUUUCUACCGGGCACCGUAAAUGUCCGACUGGAGCCGUUCGGGCGGCUAUAAACAGACCUCAGGCCCGAAGCGUGGCGGCACCUGCCGCCGGUGGUAAAAAAGAUCGGAAGAGCACACGUCU [U8G U10C C12G C13A]	1.13
GGGUCGUGGCACCAUAAUCGCGUGGAUAUGGCACGCAAGUUUCUACCGGGCACCGUAAAUGUCCGACUGGAGCCGUUCGGGCGGCUAUAAACAGACCUCAGGCCCGAAGCGUGGCGGCACCUGCCGCCGGUGGUAAAAAAGAUCGGAAGAGCACACGUCU [U8G U10C U11A]	1.89
GGGUCGUGGCUACAUAAUCGCGUGGAUAUGGCACGCAAGUUUCUACCGGGCACCGUAAAUGUCCGACUGGAGCCGUUCGGGCGGCUAUAAACAGACCUCAGGCCCGAAGCGUGGCGGCACCUGCCGCCGGUGGUAAAAAAGAUCGGAAGAGCACACGUCU [U8G U10C C12A]	1.34
GGGUCGUGGCUGCAUAAUCGCGUGGAUAUGGCACGCAAGUUUCUACCGGGCACCGUAAAUGUCCGACUGGAGCCGUUCGGGCGGCUAUAAACAGACCUCAGGCCCGAAGCGUGGCGGCACCUGCCGCCGGUGGUAAAAAAGAUCGGAAGAGCACACGUCU [U8G U10C C12G]	1.49
GGGUCGUGGCUUCAUAAUCGCGUGGAUAUGGCACGCAAGUUUCUACCGGGCACCGUAAAUGUCCGACUGGAGCCGUUCGGGCGGCUAUAAACAGACCUCAGGCCCGAAGCGUGGCGGCACCUGCCGCCGGUGGUAAAAAAGAUCGGAAGAGCACACGUCU [U8G U10C C12U]	3.67
GGGUCGUGGCAAAAUAAUCGCGUGGAUAUGGCACGCAAGUUUCUACCGGGCACCGUAAAUGUCCGACUGGAGCCGUUCGGGCGGCUAUAAACAGACCUCAGGCCCGAAGCGUGGCGGCACCUGCCGCCGGUGGUAAAAAAGAUCGGAAGAGCACACGUCU [U8G U10C U11A C12A C13A]	1.16
GGGUCGUGGCAAUAUAAUCGCGUGGAUAUGGCACGCAAGUUUCUACCGGGCACCGUAAAUGUCCGACUGGAGCCGUUCGGGCGGCUAUAAACAGACCUCAGGCCCGAAGCGUGGCGGCACCUGCCGCCGGUGGUAAAAAAGAUCGGAAGAGCACACGUCU [U8G U10C U11A C12A C13U]	1.24
GGGUCGUGGCAAGAUAAUCGCGUGGAUAUGGCACGCAAGUUUCUACCGGGCACCGUAAAUGUCCGACUGGAGCCGUUCGGGCGGCUAUAAACAGACCUCAGGCCCGAAGCGUGGCGGCACCUGCCGCCGGUGGUAAAAAAGAUCGGAAGAGCACACGUCU [U8G U10C U11A C12A C13G]	1.11
